The numbers were not newly measured in paper PMC4160827, which cites them from elsewhere.

The Kd is the constant that tells how readily two partners part at equilibrium.

The data set deals with HIF-1α CODD (Homo sapiens) (UniProt Q16665).

As to PHD2 (from UniProt Q9GZT9), the Kd is 14 µM.
